According to patent publication US10590192B2, “Midkine antibody” (Cellmid Limited, priority 2014, dated 2020):
Changes are numbered by the printed parent chain.

What was measured:
[1] = molecular target: T1, recombinant human MK (huMK) (Homo sapiens, UniProt P21741); experiment: ELISA binding of humanised anti-MK antibodies to huMK; conditions: ELISA, plates coated with 2 ug/mL huMK; read-out: Binding affinity for huMK, ELISA EC50
T1 sequence (P21741 21-143): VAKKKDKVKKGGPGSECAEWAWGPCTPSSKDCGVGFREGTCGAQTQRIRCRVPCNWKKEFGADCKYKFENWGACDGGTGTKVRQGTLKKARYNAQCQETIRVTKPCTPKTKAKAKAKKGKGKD
Procedure: (§1) The binding specificity and affinity of the humanised anti-MK antibodies to recombinant human MK (huMK) and murine MK (muMK) was assessed by ELISA. ELISA plates (Nunc Immuno MaxiSorp 96 well flat-bottom were coated with 100 uL of 2 ug/mL of either huMK or muMK in 2% BSA/PBS (overnight at room temperature). After washing, blocking (1 h at 37° C.), and washing again, the humanised anti-MK and chimeric antibodies described in Example 1 were analysed for binding to huMK or muMK at concentrations ranging between 3 μg/ml and 0.00004 μg/ml in 2% BSA/PBS (1 h at 37° C.). After washing, the binding of antibody was detected with goat anti-mouse IgG (Fab specific)-HRP conjugate (Sigma, Cat. No. A9917) and SigmaFast OPD substrate (Sigma, Cat. No. P9187). The reaction was stopped with 3 M HCl, absorbance read at 490 nm on a Dynex Technologies MRX TC II plate reader and the binding curves plotted. Binding affinity data for the humanised anti-MK antibodies to huMK and muMK are presented in Table 6 and Table 7 respectively, and in FIG. 3.
(§2) KD values for hIP14-H5L8, hIP14-H6L3 and hIP14-H6L8 was then compared with the KD values obtained for the corresponding murine IP14 precursor antibody and the chimeric antibody using the methods described in Example 2. […] Based on this finding, these candidate antibodies were produced to 100 mg scale to enable further testing in functional assays to determine biological function.

murine MK (muMK) = molecular target: T2, murine MK (muMK) (Mus musculus, UniProt P12025); experiment: ELISA binding of humanised anti-MK antibodies to muMK; conditions: ELISA, plates coated with 2 ug/mL muMK; read-out: Binding affinity for muMK, ELISA EC50
T2 sequence (P12025 23-140): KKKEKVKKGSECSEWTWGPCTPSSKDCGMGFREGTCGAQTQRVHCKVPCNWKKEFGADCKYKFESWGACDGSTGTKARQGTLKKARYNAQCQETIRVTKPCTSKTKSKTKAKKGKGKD
Procedure: as §1, §2

B1: IP14-H4L7: humanised IP14 antibody: VH SEQ ID NO: 5, VL SEQ ID NO: 16 (antibody, V domains shown)
VH: QVQLVQSGAEVKKPGASVKVSCKASGYTFTSYYMHWVRQAPGQGLEWMGIIHPSGGSTSYAQKFQGRVTMTRDTSTSTVYMELSSLRSEDTAVYYCARWSAKRGDFWGQGTLVTVSS
VL: DIVLTQSPATLSLSPGERANLSCRASESISNNLHWYQQKPHQAPRLLIYYASQSISGVPARFSGSGSGTDFNLTISSVEPEDFAVYYCQQSNSWPLTFGQGTKVEIKR
modifications: Variable region heavy chain humanised variant 4 (VH4); Variable region light chain humanised variant 7 (VL7)
- EC50 [1]: > 10 nM
- EC50 (murine MK (muMK)): > 10 nM

B2: IP14-H4L8: humanised IP14 antibody: VH SEQ ID NO: 5, VL SEQ ID NO: 17 (antibody, V domains shown)
VH: B1 VH
VL: B1 VL with N20T, N72T
modifications: Variable region heavy chain humanised variant 4 (VH4); Variable region light chain humanised variant 8 (VL8)
- EC50 [1]: > 10 nM
- EC50 (murine MK (muMK)): > 10 nM
